Patent publication US20240173424A1, “ANTI-NECTIN-4-ANTIBODY EXATECAN CONJUGATES” (EMERGENCE THERAPEUTICS AG, priority 2021, published 2024)

Tests used:
[1] = test system: SUM190PT cells and normal human differentiated keratinocytes; type: cell-based
Protocol: FIG. 10: Differential in vitro cytotoxic activity to tumor cells and normal differentiated human keratinocytes. […] Viability (MTT assay) after a 5-days incubation period is reported. EC50 values were determined by GraphPad Prism 9 software using non-linear curve fitting (4 parameters). […] Data shown is representative of 2 different Nectin-4 expressing tumor cell lines (SUM190PT and MDA-MB468) and 3 independent donors for human keratinocytes.
To analyze the in vitro cytotoxic activity of ADC, cell viability was assessed using the AlamarBlue staining protocol as recommended by the manufacturer (Biosource, CA, USA). The test incorporates a fluorescent oxidation-reduction indicator. Fluorescence intensity is proportional to cellular metabolic reduction. Experiments were done by incubating 3000 cells/well (SUM190PT or differentiated NHEK) in triplicate with serial dilutions of ADC at Day 0 in 96-wells plates. AlamarBlue was measured at Day 5 by incubating 1/10 volume of alamarBlue solution for 2 h at 37° C. and read at 595 nm (FLUOstar Optima, BMG Labtech).

[2] = In vivo half-life; details: due to a lower absorption rate in the skin
[3] = biological target: T1, Nectin-4 expressed by tumors and Nectin-4 expressed by human keratinocytes (Homo sapiens, UniProt Q96NY8); assay: Differential binding to tumor cells and human keratinocytes
T1 construct: Cells or cell lines (10,000-50,000) expressing Nectin-4 (naturally or transfected); endogenous in cells; host or cells: SUM190/SUM190PT (also SUM149 in IHC), NHEK differentiated with 0.1 mM CaCl2, human skin sections
T1 sequence (Q96NY8 32-510): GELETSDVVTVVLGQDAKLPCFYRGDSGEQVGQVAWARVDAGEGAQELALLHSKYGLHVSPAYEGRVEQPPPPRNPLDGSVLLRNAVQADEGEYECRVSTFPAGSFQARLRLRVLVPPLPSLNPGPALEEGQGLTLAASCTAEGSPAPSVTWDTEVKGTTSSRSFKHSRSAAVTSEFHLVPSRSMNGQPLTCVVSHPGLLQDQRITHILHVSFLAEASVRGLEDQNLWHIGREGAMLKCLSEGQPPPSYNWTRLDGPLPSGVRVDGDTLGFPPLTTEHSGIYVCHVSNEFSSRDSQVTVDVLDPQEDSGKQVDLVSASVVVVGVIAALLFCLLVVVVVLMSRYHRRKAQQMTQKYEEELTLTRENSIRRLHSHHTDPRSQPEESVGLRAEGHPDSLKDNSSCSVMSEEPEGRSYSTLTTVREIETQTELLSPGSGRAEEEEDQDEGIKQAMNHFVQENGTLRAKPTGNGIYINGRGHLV
From the text: FIG. 6: Differential binding to Nectin-4 expressed by tumor cell line and normal differentiated human keratinocytes. […] Cells were then stained with phycoerythrin conjugate goat anti human Fc antibody. Normalized mean fluorescence intensities are shown. Non-linear curve fitting (4 parameters) was done with GraphPad Prism 9 software. Horizontal bar is placed at 50% of maximum staining intensity obtained with HA22 antibody on SUM190 cells.
FIG. 7: Differential binding to Nectin-4 expressed by tumor cell line and normal differentiated human keratinocytes. Detection by flow cytometry. • Flow cytometry analysis of TNBC cell line (SUM190, A) and normal differentiated (0.1 mM CaCl2) human keratinocytes (NHEK, B) using 5 μg/mL of HA22 (Enfortumab), Ch-5A12.2, Ch-15A7.5, and Ch-8F06. Cells were then stained with phycoerythrin conjugate goat anti human Fc antibody. Normalized mean fluorescence intensities are shown.
FIG. 8: Differential binding to Nectin-4 expressed by tumor cell line and human keratinocytes. Detection by immuno-histochemistry. Cryo-preserved OCT-embedded blocks of high expressing levels of Nectin-4 tumor cell line (SUM190), low expressing levels of Nectin-4 tumor cell line (SUM149), human and cynomolgus skin were processed for staining with 15A7.5 mAb (A) and 9A2.7 mAb (B). Quick score reported for each mAb are shown (A, B). C, ratio of quick score SUM190 over human skin. […]
Remaining blocks were stored at −80° C. until further use. […] Several dilution of each mAb were tested to optimize noise to signal ratio and 0.5 μg/ml of mouse 15A7.5 mAb and 10 µg/mL of mouse 9A2.7 mAb were determined as optimal. […] Both the stained cells proportion and the staining intensity were evaluated for each field. […] Scoring procedure was as follows: (i) The proportion of cells stained positively was estimated and a score from 0 to 4 was be assigned for each field (0=0-5%; 1=5-25%; 2=25-50%; 3=50-75%; and 4=75-100%); and (ii) The staining intensity was scored as 0, 1, 2, or 3 corresponding to the presence of negative, weak, intermediate, and strong brown staining, respectively. […]

[4] = test system: SUM190PT cells and normal human differentiated keratinocytes; assay: Internalization assay with pHAB dye conjugates, tumor cell line and keratinocytes; type: cell-based; details: in vitro, in reference to HA22 mAb (Enfortumab)
Protocol: FIG. 9: Differential internalization in tumor cell line and human keratinocytes. Detection by fluorescence Enfortumab (HA22), Ch-15A7.5 and Isotypic control mAbs were coupled to pHAB thiol reactive dye to reach dye antibody ratio comprised between 4.58 and 5.55. A dose range of each of these antibody dye conjugates (1.6 ng/ml-5 μg/mL) was incubated in duplicates with SUM190PT Nectin-4-expressing cell line (A) normal human differentiated (0.1 mM CaCl2) keratinocytes (B). Intracellular fluorescence was recorded after 24 hours with florescence microplate reader (ClarioStar). Reported are the fluorescence intensities in function of dye antibody conjugate concentration.
Ten thousand SUM190PT or human differentiated keratinocytes (0.1 mM CaCl2) were seeded in 96-wells plates and subsequently incubated for 24 hours at 37° C., with a dose range (1.6 ng/ml-1 μg/mL) of anti Nectin-4 mAbs and isotypic control conjugated with pHAB thiol reactive dye. Upon internalization and endo-lysosomal processing, the acidic environment causes the dye to fluoresce. Fluorescence intensity was monitored on a plate reader with an excitation at 532 nm and an emission at 560 nm.
The thiol reactive dye pHAB (Promega) was conjugated to cysteine of selected anti-Nectin-4 ThiomAb (D265C, L234A, L235A) antibodies using maleimide chemistry according to manufacturer's instructions. […]

B1: mAb 15A7.5: parental monoclonal anti-Nectin-4 antibody, CDRs SEQ ID NO: 1-12, VH/VL SEQ ID NO: 13/14 (antibody, V domains shown)
VH: EVKLVESGGGLVQPGGSRKLSCAASGFTFSNYGMAWVRQAPGKGPEWVAFISNLAYGINYADTVTGRFTISRENAKNTLYLEMRSLRSEDTAMYYCARGARATGWFAYWGQGTLVTVSA
VL: DIVMTQSQKFMSTSIGDRVSVTCKASQNVDTHVAWYQEKPGQSPKALIYSASYRYSGVPDRFTGSGSGTDFTLTISNVQSEDLADYFCQQYNSYPLTFGGGTKLEIK
modifications: VH_15A7.5; VK_15A7.5
cytotoxic activity towards keratinocytes in comparison to tumor cells [1]: lower
half-life [2]: higher half-life
affinity to Nectin-4 expressed by tumors in comparison to Nectin-4 expressed by human keratinocytes ([3]; in vitro differentiated Nectin-4 expressing keratinocytes): higher affinity
binding affinity towards keratinocytes in comparison to tumor cells ([3]; in vitro, in reference to HA22 mAb (Enfortumab)): lower binding affinity
internalization towards keratinocytes in comparison to tumor cells [4]: lower
